Results reported in patent publication US20120213844A1.
Positions of bridges follow the written chain, without caps; N, C: chain ends. No end group written: not given here. PEG = not defined here

Biological target: human EGFR on tumor cells (human) (UniProt P00533)
Assay: flow cytometry on A431 cells preincubated with 2 ug EGF, 2 uM bio-P190:avidin complex, 4 C

DPCTWEVWGRECLQ-{PEG-biotin} (disulfide 3-12 (inferred); reading uncertain) [Biotinylated-PEGylated P190]
staining, fold over background: 20 fold
